Laboratory results taken from the supplement of paper PMC10266784.

B1: library; numbered along this chain (parent)
chain: MAAAAAAAAEQQSSNGPVKKSMREKAVERRSVNKEHNSNFKAGYIPIDEDRLHKTGLRGRKGNLAICVIILLFILAVINLIITLVIWAVIRIGPNGCDSMEFHESGLLRFKQVSDMGVIHPLYKSTVGGRRNENLVITGNNQPIVFQQGTTKLSVENNKTSITSDIGMQFFDPRTQNILFSTDYETHEFHLPSGVKSLNVQKASTERITSNATSDLNIKVDGRAIVRGNEGVFIMGKTIEFHMGGNMELKAENSIILNGSVMVSTTRLPSSSSGDQLGSGDWVRYKLCMCADGTLFKVQVTSQNMGCQISDNPCGNTH

Variants of: B1
Assay: SGCB cell-surface expression functional score (HA stain, bin4 vs bin1, normalised to synonymous) (log10 ratio); higher = more cell-surface SGCB (functional)
Experimental: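 Deep mutational scan of full-length human SGCB (YFP-SGCB-HA, NNN codon sublibraries A-F) delivered by lentivirus at low MOI into ADG-HEK293 cells stably expressing SGCA, SGCD and SGCG. YFP-positive cells were stained for surface HA on unpermeabilized cells and FACS-sorted into bins. The functional score is log10(frequency in high bin 4 / frequency in low bin 1), normalised per chunk so that synonymous variants have mean 0 and SD 0.5. Scores are the median over codons and over duplicate biological replicates; scores below -0.5 are called non-functional. Scale: negative means deleterious.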

Variant	SGCB cell-surface expression functional score (log10)
MAAAAAAAAEQQSSNGPVKKSMREKAVERRSVNKEHNSNFKAGYIPIDEDRLHKTGLRGRKGNLAICVIILLFILAVINLIITLVIWAVIRIGPNGCDSMEFHESGLLRFKQVSDMGVIHPLYKSTVGGRRNENLVITGNNQPIVFQQGTTKLSVENNKESITSDIGMQFFDPRTQNILFSTDYETHEFHLPSGVKSLNVQKASTERITSNATSDLNIKVDGRAIVRGNEGVFIMGKTIEFHMGGNMELKAENSIILNGSVMVSTTRLPSSSSGDQLGSGDWVRYKLCMCADGTLFKVQVTSQNMGCQISDNPCGNTH [T160E]	-1.3
MAAAAAAAAEQQSSNGPVKKSMREKAVERRSVNKEHNSNFKAGYIPIDEDRLHKTGLRGRKGNLAICVIILLFILAVINLIITLVIWAVIRIGPNGCDSMEFHESGLLRFKQVSDMGVIHPLYKSTVGGRRNENLVITGNNQPIVFQQGTTKLSVENNKTSITSDIGMQFFDPRTQNILFSTDYETHEFHLPSGYKSLNVQKASTERITSNATSDLNIKVDGRAIVRGNEGVFIMGKTIEFHMGGNMELKAENSIILNGSVMVSTTRLPSSSSGDQLGSGDWVRYKLCMCADGTLFKVQVTSQNMGCQISDNPCGNTH [V195Y]	-2.58
MAAAAAAAAEQQSSNGPVKKSMRWKAVERRSVNKEHNSNFKAGYIPIDEDRLHKTGLRGRKGNLAICVIILLFILAVINLIITLVIWAVIRIGPNGCDSMEFHESGLLRFKQVSDMGVIHPLYKSTVGGRRNENLVITGNNQPIVFQQGTTKLSVENNKTSITSDIGMQFFDPRTQNILFSTDYETHEFHLPSGVKSLNVQKASTERITSNATSDLNIKVDGRAIVRGNEGVFIMGKTIEFHMGGNMELKAENSIILNGSVMVSTTRLPSSSSGDQLGSGDWVRYKLCMCADGTLFKVQVTSQNMGCQISDNPCGNTH [E24W]	0.05
MAAAAAAAAEQQSSNGPVKKSMREKAVERRSVNKEHNSNYKAGYIPIDEDRLHKTGLRGRKGNLAICVIILLFILAVINLIITLVIWAVIRIGPNGCDSMEFHESGLLRFKQVSDMGVIHPLYKSTVGGRRNENLVITGNNQPIVFQQGTTKLSVENNKTSITSDIGMQFFDPRTQNILFSTDYETHEFHLPSGVKSLNVQKASTERITSNATSDLNIKVDGRAIVRGNEGVFIMGKTIEFHMGGNMELKAENSIILNGSVMVSTTRLPSSSSGDQLGSGDWVRYKLCMCADGTLFKVQVTSQNMGCQISDNPCGNTH [F40Y]	0.49
MAAAAAAAAEQQSSNGPVKKSMREKAVERRSVNKEHNSNFKAGYIPIDEDRLHKTGLRGRKGNLAICVIILLFILAVINLIITLVIWAVIRIGPNGCDSMEFHESGLLRFKQVSDMGVIHPLYKSTVGGRRNENLVITGNNQPIVFQQGTTKLSVENNKTSITSDIGMQFFDPRTQNILFSTDYETHEFHLPSGVKSLNVQKASTERITSNAKSDLNIKVDGRAIVRGNEGVFIMGKTIEFHMGGNMELKAENSIILNGSVMVSTTRLPSSSSGDQLGSGDWVRYKLCMCADGTLFKVQVTSQNMGCQISDNPCGNTH [T213K]	0.23
MAAAAAAAAEQQSSNGPVKKSMREKAVERRSVNKEHNSNFKAGYIPIDEDRLHKTGLRGRKGNLAICVIILLFILAVINLIITLVIWAVIRIGPNGCDSMEFHESGLLRFKQVSDMGVIHPLYKSTVGGRRNENLVITGNNQPIVFQQGTTKLSVENNHTSITSDIGMQFFDPRTQNILFSTDYETHEFHLPSGVKSLNVQKASTERITSNATSDLNIKVDGRAIVRGNEGVFIMGKTIEFHMGGNMELKAENSIILNGSVMVSTTRLPSSSSGDQLGSGDWVRYKLCMCADGTLFKVQVTSQNMGCQISDNPCGNTH [K159H]	-0.05
MAAAAAAAAEQQSSNGPVKKSMREKAVERRSVNKEHNSNFKAGYIPIDEDRLHKTGLRGRKGNLAICVIILLFILAVINLIITLVIWAVIRIGPNGCDSMEFHESGLLRFKQVSDMGVIHPLYKSTVGGRRNENLVITGNNQPIVFQQGTTKLSVENNKTSITSDIGMQFFDPRTQNILFSTDYETHEFHLPSGVKSLNVQKASTEVITSNATSDLNIKVDGRAIVRGNEGVFIMGKTIEFHMGGNMELKAENSIILNGSVMVSTTRLPSSSSGDQLGSGDWVRYKLCMCADGTLFKVQVTSQNMGCQISDNPCGNTH [R207V]	-0.64
MAAAAAAAAEQQSSNGPVKKSMREKAVERRSVNKEHNSNFKAGYIPIDEDRLHKTGLRGRKGNLAICVIILLFILAVINLIITLVIWAVIRIGPNGCDSMEFHESGLLRFKQVSDMGVIHPLYKSTVGGRRNENLVITGNNQPIVFQQGTTKLSVENNKTSITSDIGMQFFDPRTQNILFSTDYETHEFHLPSGVKSLNVQKASTERITSNATSDLNIKVDGRAIVRGNEGVFIMGKTIEFHMGGNMELKAENSIILNGSVMVSTTRLPSSSSGDQLGSGHWVRYKLCMCADGTLFKVQVTSQNMGCQISDNPCGNTH [D281H]	-1.11
MAAAAAAAAEQQSSNGPVKKSMREKAVERRSVNKEHNSNFKAGYIPIDEDRLHRTGLRGRKGNLAICVIILLFILAVINLIITLVIWAVIRIGPNGCDSMEFHESGLLRFKQVSDMGVIHPLYKSTVGGRRNENLVITGNNQPIVFQQGTTKLSVENNKTSITSDIGMQFFDPRTQNILFSTDYETHEFHLPSGVKSLNVQKASTERITSNATSDLNIKVDGRAIVRGNEGVFIMGKTIEFHMGGNMELKAENSIILNGSVMVSTTRLPSSSSGDQLGSGDWVRYKLCMCADGTLFKVQVTSQNMGCQISDNPCGNTH [K54R]	0.2
MAAAAAAAAEQQSSNGPVKKSMREKAVERRSVNKEHNSNFKAGYIPIDEDRLHKTGLRGRKGNLAICVIILLFILAVINLIITLVIWAVIRIGPNGCDSMEFHESGLLRFKQVSDMGVIHPLYKSTVGGRGNENLVITGNNQPIVFQQGTTKLSVENNKTSITSDIGMQFFDPRTQNILFSTDYETHEFHLPSGVKSLNVQKASTERITSNATSDLNIKVDGRAIVRGNEGVFIMGKTIEFHMGGNMELKAENSIILNGSVMVSTTRLPSSSSGDQLGSGDWVRYKLCMCADGTLFKVQVTSQNMGCQISDNPCGNTH [R131G]	0.16
